Test results published in paper PMC4882579, “Disclosing the essentiality of ribose-5-phosphate isomerase B in Trypanosomatids” (Scientific Reports, 2016).

Substrate: O=C(CO)[C@H](O)[C@H](O)COP(=O)(O)O
Assay: purified protein, by the assay type
Parameters: Recombinant RPIB isomerase kinetics, R5P to Ru5P (direct) or Ru5P to R5P (reverse)
Description: LiRPIB and LmRPIB recombinant proteins, containing a 6-histidine N-terminal tag, were expressed in Escherichia coli and purified by affinity chromatography under native conditions. Coomassie blue is represented in Fig. 1b, showing that both proteins have the predicted MW for the monomer (LiRPIB ~20.83, LmRPIB ~20.78 kDa). […] Additionally, recombinant LiRPIB was used to immunise rabbits to produce polyclonal anti-LiRPIB antibodies. Those antibodies recognise the recombinant protein and a single band in an extract of L. infantum promastigotes with the expected MW (~18.6 kDa, [web.expasy.org/protparam]) (Fig. 1c). […] The reverse reaction, which generates R5P, seems to be favoured, with both enzymes presenting lower Km values and higher vmax and kcat.

B1: LmRPIB (Leishmania major) (protein)
chain: MSKRVALGCDHAAYAAHREIMDMISASGAVSKVMYMGPSSDTSVDYPDYAAQVCEAILKGEADAGILVCGTGIGMSIAANKFRGIRAALCYDHVTAQLSRQHNNAHILCIGVRTSGMEIIRDIITTFLTTEPLAEGRHSNRVDKITVIEEEQMKDEQRCCFSGCGGRKEEGK
Km: 3010 ± 540 µM
Vmax: 1040 µM/min
kcat: 128 ± 7.33 s⁻¹

B2: LiRPIB (Leishmania infantum) (protein)
chain: MPKRVALGCDHAAYATHQEIMDMVNASGAASKVMYMGPSSDTSVDYPDYAAQVCEAILKGEADTGILVCGTGIGMSIAANKFRGIRAALCYDHVTAQLSRQHNNAHILCIGVRTSGMEVIRDIIETFLTTEPLAEGRHGNRVDKITVIEEEQMKDEQRWCFSGCGGLKEEGK
Km: 2820 ± 300 µM
Vmax: 930 µM/min
kcat: 115 ± 3.86 s⁻¹
